This passage reports FRET efficiency results from article PMC2829087.

This assay concerns the target Myc-GPI-TSHR-ecd (TSH receptor ectodomain, residues 1-412, linked to a GPI anchor, Myc-tagged) (human) (UniProt P16473). As to the kind of experiment: FRET or BRET; sensitized emission FRET on transfected HEK 293 cells fixed with 4% paraformaldehyde; anti-HA FITC (donor) and anti-Myc Cy3 (acceptor), or GFP (donor) and anti-Myc Cy3 (acceptor) for full-length receptors; pFRET software.

Take “HA-GPI-TSHR-ecd (TSH receptor ectodomain, residues 1-412, linked to a GPI anchor, HA-tagged) (from UniProt P16473 21-412) (domain or fragment)”: the FRET efficiency was 8 to 10%.
